Measurements published in patent US20260217833A1 (APTEVO RESEARCH AND DEVELOPMENT, published 2026).

B1: CD4001077 (bispecific antibody)
PDL_5F9 x Fc-Knob: EVQLVESGGGLVKPGGSLRLSCAASGFTFSDYGMAWVRQAPGKGLEWVAFITSLAYIIYYADSVKGRFTISRDNAKNSLYLQMNSLRAEDTAVYYCARNYGSSPYYFDYWGQGTLVTVSSGGGGSGGGGSGGGGSGGGGSDIQMTQSPSSLSASVGDRVTITCRASQDINKFLSWYQQKPGKAPKLLIHYTSSLQPGVPSRFSGSGSGTDFTLTISSLQPEDFATYYCLQYDNLYTFGQGTKLEIKEPKSSDKTHTCPPCPAPPAAAPSVFLFPPKPKDTLMISRTPEVTCVVVDVSHEDPEVKFNWYVDGVEVHNAKTKPREEQYNSTYRVVSVLTVLHQDWLNGKEYKCAVSNKALPAPIEKTISKAKGQPREPQVYTLPPSRDELTKNQVSLWCLVKGFYPSDIAVEWESNGQPENNYKTTPPVLDSDGSFFLYSKLTVDKSRWQQGNVFSCSVMHEALHNHYTQKSLSLSPG
PDL_5F9 x Fc-Hole x CD40_5B9: EVQLVESGGGLVKPGGSLRLSCAASGFTFSDYGMAWVRQAPGKGLEWVAFITSLAYIIYYADSVKGRFTISRDNAKNSLYLQMNSLRAEDTAVYYCARNYGSSPYYFDYWGQGTLVTVSSGGGGSGGGGSGGGGSGGGGSDIQMTQSPSSLSASVGDRVTITCRASQDINKFLSWYQQKPGKAPKLLIHYTSSLQPGVPSRFSGSGSGTDFTLTISSLQPEDFATYYCLQYDNLYTFGQGTKLEIKEPKSSDKTHTCPPCPAPPAAAPSVFLFPPKPKDTLMISRTPEVTCVVVDVSHEDPEVKFNWYVDGVEVHNAKTKPREEQYNSTYRVVSVLTVLHQDWLNGKEYKCAVSNKALPAPIEKTISKAKGQPREPQVYTLPPSRDELTKNQVSLSCAVKGFYPSDIAVEWESNGQPENNYKTTPPVLDSDGSFFLVSKLTVDKSRWQQGNVFSCSVMHEALHNRFTQKSLSLSPGGGGSPSDVVMTQTPLSLPVSLGDQASISCRSSQSLVHYNGYTYLHWYLQKPGQSPKLLIYKVSNRFSGVPDRFSGSGSGTDFTLKISRVEAEDLGVYFCSQTTHVPLTFGAGTKLELRGGGGSGGGGSGGGGSGGGGSEVMLVESGGGLVKPGGSLKLSCAASGFTFSSYAMSWVRQTPERRLEWVASISSAGTYIYYPDSVKGRFTISRDNAKNILYLQMNSLRSEDTAMYYCARHGNGYDPLWYFDVWGAGTTVTVSS
B2: CD4001074 (bispecific antibody)
CD40_5B9 x Fc-Knob: DVVMTQTPLSLPVSLGDQASISCRSSQSLVHYNGYTYLHWYLQKPGQSPKLLIYKVSNRFSGVPDRFSGSGSGTDFTLKISRVEAEDLGVYFCSQTTHVPLTFGAGTKLELRGGGGSGGGGSGGGGSGGGGSEVMLVESGGGLVKPGGSLKLSCAASGFTFSSYAMSWVRQTPERRLEWVASISSAGTYIYYPDSVKGRFTISRDNAKNILYLQMNSLRSEDTAMYYCARHGNGYDPLWYFDVWGAGTTVTVSSEPKSSDKTHTCPPCPAPPAAAPSVFLFPPKPKDTLMISRTPEVTCVVVDVSHEDPEVKFNWYVDGVEVHNAKTKPREEQYNSTYRVVSVLTVLHQDWLNGKEYKCAVSNKALPAPIEKTISKAKGQPREPQVYTLPPSRDELTKNQVSLWCLVKGFYPSDIAVEWESNGQPENNYKTTPPVLDSDGSFFLYSKLTVDKSRWQQGNVFSCSVMHEALHNHYTQKSLSLSPG
CD40_5B9 x Fc-Hole x PDL_5F9: DVVMTQTPLSLPVSLGDQASISCRSSQSLVHYNGYTYLHWYLQKPGQSPKLLIYKVSNRFSGVPDRFSGSGSGTDFTLKISRVEAEDLGVYFCSQTTHVPLTFGAGTKLELRGGGGSGGGGSGGGGSGGGGSEVMLVESGGGLVKPGGSLKLSCAASGFTFSSYAMSWVRQTPERRLEWVASISSAGTYIYYPDSVKGRFTISRDNAKNILYLQMNSLRSEDTAMYYCARHGNGYDPLWYFDVWGAGTTVTVSSEPKSSDKTHTCPPCPAPPAAAPSVFLFPPKPKDTLMISRTPEVTCVVVDVSHEDPEVKFNWYVDGVEVHNAKTKPREEQYNSTYRVVSVLTVLHQDWLNGKEYKCAVSNKALPAPIEKTISKAKGQPREPQVYTLPPSRDELTKNQVSLSCAVKGFYPSDIAVEWESNGQPENNYKTTPPVLDSDGSFFLVSKLTVDKSRWQQGNVFSCSVMHEALHNRFTQKSLSLSPGGGGSPSEVQLVESGGGLVKPGGSLRLSCAASGFTFSDYGMAWVRQAPGKGLEWVAFITSLAYIIYYADSVKGRFTISRDNAKNSLYLQMNSLRAEDTAVYYCARNYGSSPYYFDYWGQGTLVTVSSGGGGSGGGGSGGGGSGGGGSDIQMTQSPSSLSASVGDRVTITCRASQDINKFLSWYQQKPGKAPKLLIHYTSSLQPGVPSRFSGSGSGTDFTLTISSLQPEDFATYYCLQYDNLYTFGQGTKLEIK

Tests used:
Human PD-L1 full-length = target: T1, Human PD-L1 full-length (human, UniProt Q9NZQ7 19-290); test: flow cytometry, CHOK1SV/human PD-L1 cells
T1 construct: also called PDL01021; CHOK1SV/huPDL1
T1 sequence (Q9NZQ7 19-290): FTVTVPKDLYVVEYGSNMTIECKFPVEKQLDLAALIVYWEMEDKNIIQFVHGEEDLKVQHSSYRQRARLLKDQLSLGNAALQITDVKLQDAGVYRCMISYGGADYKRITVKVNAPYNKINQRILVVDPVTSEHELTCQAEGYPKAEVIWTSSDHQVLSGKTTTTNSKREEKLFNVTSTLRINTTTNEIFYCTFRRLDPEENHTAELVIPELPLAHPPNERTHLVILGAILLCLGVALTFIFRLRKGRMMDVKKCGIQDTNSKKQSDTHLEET

human CD40 full-length = target: T2, human CD40 full-length (human, UniProt P25942 21-277); test: flow cytometry, CHOK1SV/human CD40 cells
T2 construct: Also used for CD40 of Daudi cells, of CD40-expressing HEK293 cells and of the BPS CD40/NFkB HEK293 reporter cells where the row says so; also called CD4001012; CHOK1SV/CD40

Row | Binder | binding result (Human PD-L1 full-length) | binding result (human CD40 full-length) | EC50 (read off the curve) (human CD40 full-length) [nM]
1 | B1 | binds | binds | 
2 | B2 | binds |  | ~2
